The values that follow come from patent US20260116991A1.

In assay [1] the target is monkey GPC3-His protein (monkey). The assay can be described thus: ELISA, monkey GPC3-His coated; antibody 0.02 nM. For orientation: ELISA stands for enzyme-linked immunosorbent assay.
Assay [2] has the same target. The assay can be described thus: ELISA, monkey GPC3-His coated; antibody 0.11 nM.
Assay [3] shares this target. The experiment in a line: ELISA, monkey GPC3-His coated; antibody 0.53 nM.
For assay [4] the target is unchanged. The experiment in a line: ELISA, monkey GPC3-His coated; antibody 2.67 nM.
For assay [5] the target is unchanged. The experiment in a line: ELISA, monkey GPC3-His coated; antibody 0.004 nM.
Assay [6] has the same target. The experiment in a line: ELISA, monkey GPC3-His coated; antibody 13.33 nM.
Assay [7] shares this target. The assay can be described thus: ELISA, monkey GPC3-His coated; antibody 66.66 nM.
Assay [8] shares this target. The experiment in a line: ELISA, monkey GPC3-His coated; antibody 0.0008 nM.
Assay [9] deals with monkey GPC3 on HEK293T-monkey GPC3 cells (monkey). The experiment in a line: FACS on HEK293T-monkey GPC3 cells.

B1: hAb003LH1L1 (antibody, human IgG1, V domains shown)
VH: EVQLVQSGAEVKKPGSSVKVSCKASGYTFSDYEMHWVRQAPGQGLEWMGTIDPETGNTAYTQKFMDRVTITADKSTSTAYMELSSLRSEDTAVYYCTRGYSFTYWGQGTLVTVSS
VL: DIVMTQTPLSLPVTPGEPASISCRSSQNIVHSNGNTYLQWYLQKPGQSPQLLIFKVSNRFSGVPDRFSGSGSGTDFTLKISRVEAEDVGVYYCFQGSHVPFTFGQGTKLEIK
Regarding B1, the OD450 nm in assay [1] stood at 1.34; in assay [2] it was 2.31; in [3], 2.65; in assay [4] it was 2.58; in [5], 0.467; in assay [6] it was 2.62. The figures for the OD450 nm in [7] and in assay [8] were 2.58 and 0.188, respectively.

B2: hAb001H2L1 (antibody, human IgG1, V domains shown)
VH: EVQLVESGGGLVQPGGSLRLSCAASGFSFNTNAMNWVRQAPGKGLEWVGRIRSKSNNYATYYADSVKDRFTISRDDSKSSLYLQMNSLKTEDTAVYYCVRDGYYVLFAYWGQGTLVTVSS
VL: DIVMTQTPLSLPVTPGEPASISCRFSQSIVNSNGNTYLEWFLQKPGQSPQLLIYKVSNRFSGVPDRFSGSGSGTDFTLKISRVEAEDVGVYYCFQGSHVPFTFGQGTKLEIK
The EC50 is the concentration giving half of the maximal effect. Regarding B2, in assay [9], the EC50 turned out to be 1.08 nM and the Max MFI came out at 33300 MFI.

B3: hAb006LH3L1d (antibody, human IgG1, V domains shown)
VH: EVQLVQSGAEVKKPGSSVKVSCKASGYTFTDYEIHWVRQAPGQGLEWMGAIDPKTGNTAYNQKFMGRVTLTADKSTSTAYMELSSLRSEDTAVYYCTRYFSFAYWGQGTLVTVSS
VL: DIVMTQTPLSLPVTPGEPASISCRSSQTFVHSNSNTYLQWYLQKPGQSPQLLIYKVSNRFSGVPDRFSGSGSGTDFTLKISRVEAEDVGVYYCFQGSHVPYTFGQGTKLEIK
In assay [9], B3 yielded an EC50 of 6.16 nM and a Max MFI of 84800 MFI.

B4: hAb006LH1L1a (antibody, human IgG1, V domains shown)
VH: EVQLVQSGAEVKKPGSSVKVSCKASGYTFSDYEIHWVRQAPGQGLEWMGAIDPKTGNTAYNQKFMGRVTITADKSTSTAYMELSSLRSEDTAVYYCTRYFSFAYWGQGTLVTVSS
VL: DIVMTQTPLSLPVTPGEPASISCRSSQTFVHSDGNTYLQWYLQKPGQSPQLLIYKVSNRFSGVPDRFSGSGSGTDFTLKISRVEAEDVGVYYCFQGSHVPYTFGQGTKLEIK
Turning to B4, the OD450 nm in [1] turned out to be 0.078; in [2], 0.227; in assay [3], 0.917; in assay [4] it was 1.63; in assay [5], 0.058; in [6], 1.82. In addition, the OD450 nm in assay [7] came out at 2.08; in assay [8], 0.05.

B5: hAb001H1L1 (antibody, human IgG1, V domains shown)
VH: EVQLVESGGGLVQPGGSLRLSCAASGFSFNTNAMNWVRQAPGKGLEWVGRIRSKSNNYATYYADSVKDRFTISRDDSKNSLYLQMNSLKTEDTAVYYCVRDGYYVLFAYWGQGTLVTVSS
VL: DIVMTQTPLSLPVTPGEPASISCRFSQSIVNSNGNTYLEWFLQKPGQSPQLLIYKVSNRFSGVPDRFSGSGSGTDFTLKISRVEAEDVGVYYCFQGSHVPFTFGQGTKLEIK
Consider B5, for which, in [9], the EC50 amounted to 1.33 nM and the Max MFI is 33500 MFI.

B6: hAb006LH1L1b (antibody, human IgG1, V domains shown)
VH: EVQLVQSGAEVKKPGSSVKVSCKASGYTFSDYEIHWVRQAPGQGLEWMGAIDPKTGNTAYNQKFMGRVTITADKSTSTAYMELSSLRSEDTAVYYCTRYFSFAYWGQGTLVTVSS
VL: DIVMTQTPLSLPVTPGEPASISCRSSQTFVHSNANTYLQWYLQKPGQSPQLLIYKVSNRFSGVPDRFSGSGSGTDFTLKISRVEAEDVGVYYCFQGSHVPYTFGQGTKLEIK
Regarding B6, the OD450 nm turned out to be 0.877 in assay [1]; 2.13 in [2]; 2.49 in assay [3]; 2.75 in assay [4]; 0.309 in assay [5]; 2.5 in assay [6]. Further, the OD450 nm in assay [7] came out at 2.77; in [8], 0.111.

B7: hAb001H1aL1a (antibody, human IgG1, V domains shown)
VH: EVQLVESGGGLVQPGGSLRLSCAASGFSFNTNAMNWVRQAPGKGLEWVGRIRSKSNNYATYYADSVKGRFTISRDDSKNSLYLQMNSLKTEDTAVYYCVRDGYYVLFAYWGQGTLVTVSS
VL: DIVMTQTPLSLPVTPGEPASISCRFSQSIVNSDGNTYLEWFLQKPGQSPQLLIYKVSNRFSGVPDRFSGSGSGTDFTLKISRVEAEDVGVYYCFQGSHVPFTFGQGTKLEIK
For B7, in [9], the EC50 amounted to 1.68 nM and the Max MFI was determined as 27200 MFI.

B8: hAb001H1L1a (antibody, human IgG1, V domains shown)
VH: EVQLVESGGGLVQPGGSLRLSCAASGFSFNTNAMNWVRQAPGKGLEWVGRIRSKSNNYATYYADSVKDRFTISRDDSKNSLYLQMNSLKTEDTAVYYCVRDGYYVLFAYWGQGTLVTVSS
VL: DIVMTQTPLSLPVTPGEPASISCRFSQSIVNSDGNTYLEWFLQKPGQSPQLLIYKVSNRFSGVPDRFSGSGSGTDFTLKISRVEAEDVGVYYCFQGSHVPFTFGQGTKLEIK
As to B8, in [9], the EC50 turned out to be 1.87 nM and the Max MFI was determined as 24900 MFI.

B9: hAb007LH1L1d (antibody, human IgG1, V domains shown)
VH: EVQLVQSGAEVKKPGSSVKVSCKASGYTFSDYEMHWVRQAPGQGLEWMGTIDPETGNTAYNQKFKGRVTITADKSTSTAYMELSSLRSEDTAVYYCTRPYSLTYWGQGTLVTVSS
VL: DIVMTQTPLSLPVTPGEPASISCRSSQSFVHSNSDTYLQWYLQKPGQSPQLLIYKVSNRFSGVPDRFSGSGSGTDFTLKISRVEAEDVGVYYCFQGSHVPYTFGQGTKLEIK
In assay [9], B9 registered an EC50 of 13.6 nM and a Max MFI of 80400 MFI.

B10: hAb001H2L1a (antibody, human IgG1, V domains shown)
VH: EVQLVESGGGLVQPGGSLRLSCAASGFSFNTNAMNWVRQAPGKGLEWVGRIRSKSNNYATYYADSVKDRFTISRDDSKSSLYLQMNSLKTEDTAVYYCVRDGYYVLFAYWGQGTLVTVSS
VL: DIVMTQTPLSLPVTPGEPASISCRFSQSIVNSDGNTYLEWFLQKPGQSPQLLIYKVSNRFSGVPDRFSGSGSGTDFTLKISRVEAEDVGVYYCFQGSHVPFTFGQGTKLEIK
In assay [9], B10 registered an EC50 of 2.03 nM and a Max MFI of 26900 MFI.

B11: hAb003LH1L1b (antibody, human IgG1, V domains shown)
VH: EVQLVQSGAEVKKPGSSVKVSCKASGYTFSDYEMHWVRQAPGQGLEWMGTIDPETGNTAYTQKFMDRVTITADKSTSTAYMELSSLRSEDTAVYYCTRGYSFTYWGQGTLVTVSS
VL: DIVMTQTPLSLPVTPGEPASISCRSSQNIVHSNRNTYLQWYLQKPGQSPQLLIFKVSNRFSGVPDRFSGSGSGTDFTLKISRVEAEDVGVYYCFQGSHVPFTFGQGTKLEIK
For B11, the OD450 nm in [1] worked out at 1.22; in assay [2] it was 2.18; in [3] it was 2.46; in assay [4], 2.58; in assay [5] it was 0.418; in [6], 2.64. The results for the OD450 nm in assay [7] and in assay [8] were 2.55 and 0.192, respectively.

B12: hAb006LH3L1e (antibody, human IgG1, V domains shown)
VH: EVQLVQSGAEVKKPGSSVKVSCKASGYTFTDYEIHWVRQAPGQGLEWMGAIDPKTGNTAYNQKFMGRVTLTADKSTSTAYMELSSLRSEDTAVYYCTRYFSFAYWGQGTLVTVSS
VL: DIVMTQTPLSLPVTPGEPASISCRSSQTFVHSNVNTYLQWYLQKPGQSPQLLIYKVSNRFSGVPDRFSGSGSGTDFTLKISRVEAEDVGVYYCFQGSHVPYTFGQGTKLEIK
As to B12, in assay [9], the EC50 is 6.54 nM and the Max MFI was 82900 MFI.

B13: hAb006LH2L1 (antibody, human IgG1, V domains shown)
VH: EVQLVQSGAEVKKPGSSVKVSCKASGYTFTDYEIHWVRQAPGQGLEWMGAIDPKTGNTAYNQKFMGRVTITADKSTSTAYMELSSLRSEDTAVYYCTRYFSFAYWGQGTLVTVSS
VL: DIVMTQTPLSLPVTPGEPASISCRSSQTFVHSNGNTYLQWYLQKPGQSPQLLIYKVSNRFSGVPDRFSGSGSGTDFTLKISRVEAEDVGVYYCFQGSHVPYTFGQGTKLEIK
On to B13, for which the OD450 nm was 1.06 in [1]; 2.01 in assay [2]; 2.38 in assay [3]; 2.46 in [4]; 0.358 in assay [5]; 2.23 in assay [6]. Further, the OD450 nm in assay [7] is 2.39; in assay [8], 0.129.

B14: hAb007LH1L1e (antibody, human IgG1, V domains shown)
VH: EVQLVQSGAEVKKPGSSVKVSCKASGYTFSDYEMHWVRQAPGQGLEWMGTIDPETGNTAYNQKFKGRVTITADKSTSTAYMELSSLRSEDTAVYYCTRPYSLTYWGQGTLVTVSS
VL: DIVMTQTPLSLPVTPGEPASISCRSSQSFVHSNVDTYLQWYLQKPGQSPQLLIYKVSNRFSGVPDRFSGSGSGTDFTLKISRVEAEDVGVYYCFQGSHVPYTFGQGTKLEIK
On to B14, for which, in [9], the EC50 worked out at 19.9 nM and the Max MFI was found to be 59700 MFI.

B15: hAb005LH2L1b (antibody, human IgG1, V domains shown)
VH: EVQLVQSGAEVKKPGASVKVSCKASGYTFTDYEMHWVRQAPGQGLEWMGAIDPETGNTAYIQKFKGRVTLTTDKSTSTAYMELRSLRSDDTAVYYCTRFYSYSHWGQGTTVTVSS
VL: DIVMTQTPLSLPVTPGEPASISCRSSQSLVHSNRNTYLHWYLQKPGQSPQLLIYKVSNRFSGVPDRFSGSGSGTDFTLKISRVEAEDVGVYYCSQNTHVPPTFGGGTKVEIK
Regarding B15, the OD450 nm in assay [1] came out at 0.687; in assay [2] it was 1.17; in assay [3] it was 1.25; in assay [4], 1.32; in [5] it was 0.232; in assay [6], 1.24. In addition, the OD450 nm in assay [7] amounted to 1.23; in assay [8], 0.09.

B16: GC33 IgG (antibody, V domains shown)
VH: QVQLVQSGAEVKKPGASVKVSCKASGYTFTDYEMHWVRQAPGQGLEWMGALDPKTGDTAYSQKFKGRVTLTADKSTSTAYMELSSLTSEDTAVYYCTRFYSYTYWGQGTLVTVSS
VL: DVVMTQSPLSLPVTPGEPASISCRSSQSLVHSNRNTYLHWYLQKPGQSPQLLIYKVSNRFSGVPDRFSGSGSGTDFTLKISRVEAEDVGVYYCSQNTHVPPTFGQGTKLEIKR
In assay [9], B16 gave an EC50 of 5.96 nM and a Max MFI of 87000 MFI.
